The test deals with U6, a member of the malonate semialdehyde decarboxylase (MSAD)-like subgroup of the tautomerase superfamily. Briefly: native MS.

Substance “U6, a member of the malonate semialdehyde decarboxylase (MSAD)-like subgroup of the tautomerase superfamily (enzyme)” gave a stoichiometry N of 3.

As usually defined, the stoichiometry N is the number of molecules, sites or subunits per partner or assembly.

(Values after article PMC9484798.)
